Experimental data: US7183110B2, “Antibody immunoreactive with a 5-enolpyruvylshikimate-3-phosphate synthase” (Monsanto Technology LLC, priority 1990, dated 2007)

Columns and labels:
EPSPS enzymes = test: Kinetic characterization of EPSPS enzymes (Km PEP, Ki glyphosate); assay type: biochemical; conditions: for Ki/Km: Ki glyphosate / Km PEP; for Km: Km of the EPSPS enzyme for phosphoenolpyruvate, PEP ranges tested in table footnotes
Procedure: The EPSPS enzymes from these microorganisms were then subjected to further study and analysis.
When the change introduced into the Petunia EPSPS (GA101) was introduced into a number of other EPSPS enzymes, similar changes in kinetics were observed, an elevation of the Ki for glyphosate and of the Km for PEP.
All protein purification procedures were carried out at 3–5° C. EPSPS enzyme assays were performed using either the phosphate release or radioactive HPLC method, as previously described in Padgette et al., 1987, using 1 mM phosphoenol pyruvate (PEP, Boehringer) and 2 mM shikimate-3-phosphate (S3P) substrate concentrations. For radioactive HPLC assays, ^14C-PEP (Amersham) was utilized. S3P was synthesized as previously described in Wibbenmeyer et al. 1988. N-terminal amino acid sequencing was performed by loading samples onto a Polybrene precycled filter in aliquots while drying. Automated Edman degradation chemistry was used to determine the N-terminal protein sequence, using an Applied Biosystems Model 470A gas phase sequencer (Hunkapiller et al., 1983) with an Applied Biosystems 120A PTH analyzer.

B. subtilis EPSPS = biological target: T1, B. subtilis EPSPS (Bacillus subtilis, UniProt P20691); test: EPSPS assay and kinetics of B. subtilis EPSPS in crude bacterial extract; assay type: biochemical; conditions: for EPSPS specific activity: crude extract
T1 construct: Standard EPSPS assay reactions contained crude bacterial extract; endogenous in cells; host or cells: Bacillus subtilis 1A2 crude extract; some values from E. coli GB100 carrying pMON21133 (subclone) or pMON21132 (PCR clone)
Procedure: Bacillus subtilis 1A2 (prototroph) was obtained from the Bacillus Genetic Stock Center at Ohio State University. Standard EPSPS assay reactions contained crude bacterial extract with, 1 mM phosphoenolpyruvate (PEP), 2 mM shikimate-3-phosphate (S3P), 0.1 mM ammonium molybdate, 5 mM potassium fluoride, and 50 mM HEPES, pH 7.0 at 25° C. One unit (U) of EPSPS activity is defined as one μmol EPSP formed per minute under these conditions. For kinetic determinations, reactions contained crude bacterial, 2 mM S3P, varying concentrations of PEP, and 50 mM HEPES, pH 7.0 at 25° C. […] When the assays were performed in the presence of 1 mM glyphosate, 100% of the EPSPS activity was retained. The appKm(PEP) of the B. subtilis EPSPS was determined by measuring the reaction velocity at varying concentrations of PEP. The results were analyzed graphically by the hyperbolic, Lineweaver-Burk and Eadie-Hofstee plots which yielded appKm(PEP) values of 15.3 μM, 10.8 μM and 12.2 μM, respectively. These three data treatments are in good agreement, and yield an average value for appKm(PEP) of 13 μM. The appKi(glyphosate) was estimated by determining the reaction rates of B. subtilis 1A2 EPSPS in the presence of several concentrations of glyphosate, at a PEP concentration of 2 μM.
The other approach to the isolation of the B. subtilis aroE gene, subcloning from ECE13 into pUC118, was performed as follows: • (i) Cut ECE13 and pUC with XmaI and SphI. • (ii) Isolate 1700 bp aroE fragment and 2600 bp pUC118 vector fragment. • (iii) Ligate fragments and transform into GB100. The subclone was designated pMON21133 and the PCR-derived clone was named pMON21132. Clones from both approaches were first confirmed for complementation of the aroA mutation in E. coli GB100. […] These specific activities reflect the expected types of expression levels of the two vectors. […] The appKm(PEP) and the appKi(glyphosate) of the subcloned B. subtilis EPSPS (pMON21133) were determined as described above. […] Characterization of the EPSPS Gene from Staphylococcus aureus

CP4 EPSPS = biological target: T2, CP4 EPSPS (Agrobacterium sp., UniProt Q9R4E4, S2A); test: EPSPS activity from native and synthetic CP4 EPSPS genes expressed in E. coli; assay type: biochemical, Agrobacterium sp. strain CP4
T2 construct: made in house; host or cells: E. coli, PRecA-gene10L vector
T2 sequence (Q9R4E4 whole entry S2A): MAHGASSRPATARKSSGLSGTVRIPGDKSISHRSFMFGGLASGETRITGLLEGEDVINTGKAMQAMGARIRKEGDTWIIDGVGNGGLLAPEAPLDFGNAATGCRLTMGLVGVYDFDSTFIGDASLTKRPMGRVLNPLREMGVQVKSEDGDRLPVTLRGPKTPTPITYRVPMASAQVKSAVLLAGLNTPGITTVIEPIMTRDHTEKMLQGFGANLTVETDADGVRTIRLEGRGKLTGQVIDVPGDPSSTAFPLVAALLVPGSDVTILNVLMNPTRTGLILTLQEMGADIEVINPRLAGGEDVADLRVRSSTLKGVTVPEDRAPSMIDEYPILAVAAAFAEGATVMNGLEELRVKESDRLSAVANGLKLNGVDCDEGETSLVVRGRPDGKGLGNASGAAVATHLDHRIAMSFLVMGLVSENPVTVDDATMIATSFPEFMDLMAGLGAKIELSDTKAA
Source text: A synthetic CP4 gene was designed to change as completely as possible those inimical sequences discussed above. In summary, the gene sequence was redesigned to eliminate as much as possible the following sequences or sequence features (while avoiding the introduction of unnecessary restriction sites): stretches of G's and C's of 5 or greater; and A+T rich regions (predominantly) that could function as polyadenylation sites or potential RNA destabilization region The sequence of this gene is shown in FIG. 8 (SEQ ID NO:9). This coding sequence was expressed in E. coli from the RecA promoter and assayed for EPSPS activity and compared with that from the native CP4 EPSPS gene. […] The N-terminus of the coding sequence was mutagenized to place an SphI site at the ATG to permit the construction of the CTP2-CP4 synthetic fusion for chloroplast import. The following primer was used to accomplish this mutagenesis:
The EPSPS gene was isolated originally from Agrobacterium sp. strain CP4 and expresses a highly tolerant enzyme. The original gene contains sequences that could be inimical to high expression of the gene in some plants. […] The high G+C % in the CP4 EPSPS gene could also result in the formation of strong hairpin structures that may affect expression or stability of the RNA. A plant preferred version of the gene was synthesized and used for these vectors. This coding sequence was expressed in E. coli from a PRecA-gene10L vector (Olins et al., 1988) and the EPSPS activity was compared with that from the native CP4 EPSPS gene. […] The N-terminus of the coding sequence was then mutagenized to place an SphI site (GCATGC) at the ATG to permit the construction of the CTP2-CP4 synthetic fusion for chloroplast import. This change had no apparent effect on the in vivo activity of CP4 EPSPS in E. coli as judged by complementation of the aroA mutant. A CTP-CP4 EPSPS fusion was constructed between the Arabidopsis thaliana EPSPS CTP (Klee et al., 1987) and the CP4 EPSPS coding sequences. The Arabidopsis CTP was engineered by site-directed mutagenesis to place a SphI restriction site at the CTP processing site. This mutagenesis replaced the Glu-Lys at this location with Cys-Met. The CTP2-CP4 EPSPS fusion was tested for import into chloroplasts isolated from Lactuca sativa using the methods described previously (della-Cioppa et al., 1986: 1987).

[1] = test system: rabbit anti-EPSPS antibody; test: Western analysis with rabbit anti-EPSPS antibody to the Petunia EPSPS protein; assay type: binding; conditions: crude extracts 50 μg protein; control Petunia EPSPS 20 ng; Protein A-125I development
Source text: The presence of EPSPS activity in these extracts was confirmed by enzyme assay. This surprising result, indicating a lack of similarity between the EPSPS's from these bacterial isolates and those previously studied, coupled with the combination of a low Km for PEP and a high Ki for glyphosate, illustrates that these new EPSPS enzymes are different from known EPSPS enzymes (now referred to as Class I EPSPS).

[2] = 2 mM S3P, varying PEP, pH 7.0, 25° C.
[3] = 1 mM PEP, 2 mM S3P, pH 7.0, 25° C.

B1: B. subtilis 1A2: Class II EPSPS from Bacillus subtilis 1A2 (SEQ ID NO:42) (protein, listed as Bacillus subtilis)
chain: MKRDKVQTLHGEIHIPGDKSISHRSVMFGALAAGTTTVKNFLPGADCLSTIDCFRKMGVHIEQSSSDVVIHGKGIDALKEPESLLDVGNSGTTIRLMLGILAGRPFYSAVAGDESIAKRPMKRVTEPLKKMGAKIDGRAGGEFTPLSVSGASLKGIDYVSPVASAQIKSAVLLAGLQAEGTTTVTEPHKSRDHTERMLSAFGVKLSEDQTSVSIAGGQKLTAADIFVPGDISSAAFFLAAGAMVPNSRIVLKNVGLNPTRTGIIDVLQNMGAKLEIKPSADSGAEPYGDLIIETSSLKAVEIGGDIIPRLIDEIPIIALLATQAEGTTVIKDAAELKVKETNRIDTVVSELRKLGAEIEPTADGMKVYGKQTLKGGAAVSSHGDHRIGMMLGIASCITEEPIEIEHTDAIHVSYPTFFEHLNKLSKKS
Ki/Km (EPSPS enzymes): 33.8 | Km (EPSPS enzymes): 13 µM | EPSPS activity retained in the presence of 1 mM glyphosate (B. subtilis EPSPS; 1 mM glyphosate, 1 mM PEP, 2 mM S3P): 100% | appKm(PEP), Eadie-Hofstee plot (B. subtilis EPSPS; [2]): 12.2 µM | appKm(PEP), Lineweaver-Burk plot (B. subtilis EPSPS; [2]): 10.8 µM | appKm(PEP), hyperbolic plot (B. subtilis EPSPS; [2]): 15.3 µM | average value for appKm(PEP) (B. subtilis EPSPS; average of three data treatments): 13 µM | EPSPS specific activity (B. subtilis EPSPS; [3]): 0.003 U/mg

B2: pMON21133: B. subtilis EPSPS (aroE) subcloned from ECE13 into pUC118, expressed in E. coli GB100 (protein, UniProt P54374 1-280, looked up)
Shikimate dehydrogenase …: MKKLYGVIGNPIGHSMSPDIHNASLKDLGLDGHYHAFKVEENDLEDAVKGIRALGVQGINVTVPHKVSIMDYLDHIDESAKVLGAVNTVRREGDKLVGYNTDGEGFVKSLMKVLDKPISELSFLMIGAGGAARAIFTTIVRNTPKKFDICNRTLEKAKRLTEATPSFHNKEVLSIKEAEERLEQYDVIIHTTSVGMYPNVDDVPLSLQRAASSAVVCDIVYNPIQTALLKEASQKGLKTLDGVGMFVEQAALSFQLWTGQEPNIEKMRSIVIGKLGGTEC
EPSPS specific activity (B. subtilis EPSPS; [3]): 0.044 U/mg

B3: pMON21132: B. subtilis EPSPS from the PCR-derived aroE clone, expressed in E. coli GB100 (protein, UniProt P54374 1-280, looked up)
Shikimate dehydrogenase …: MKKLYGVIGNPIGHSMSPDIHNASLKDLGLDGHYHAFKVEENDLEDAVKGIRALGVQGINVTVPHKVSIMDYLDHIDESAKVLGAVNTVRREGDKLVGYNTDGEGFVKSLMKVLDKPISELSFLMIGAGGAARAIFTTIVRNTPKKFDICNRTLEKAKRLTEATPSFHNKEVLSIKEAEERLEQYDVIIHTTSVGMYPNVDDVPLSLQRAASSAVVCDIVYNPIQTALLKEASQKGLKTLDGVGMFVEQAALSFQLWTGQEPNIEKMRSIVIGKLGGTEC
EPSPS specific activity (B. subtilis EPSPS; [3]): 0.71 U/mg

B4: synthetic CP4 gene: EPSPS enzyme expressed in E. coli from the synthetic CP4 gene (SEQ ID NO:9) (protein, UniProt Q9R4E4 1-455, looked up)
3-phosphoshikimate …: MSHGASSRPATARKSSGLSGTVRIPGDKSISHRSFMFGGLASGETRITGLLEGEDVINTGKAMQAMGARIRKEGDTWIIDGVGNGGLLAPEAPLDFGNAATGCRLTMGLVGVYDFDSTFIGDASLTKRPMGRVLNPLREMGVQVKSEDGDRLPVTLRGPKTPTPITYRVPMASAQVKSAVLLAGLNTPGITTVIEPIMTRDHTEKMLQGFGANLTVETDADGVRTIRLEGRGKLTGQVIDVPGDPSSTAFPLVAALLVPGSDVTILNVLMNPTRTGLILTLQEMGADIEVINPRLAGGEDVADLRVRSSTLKGVTVPEDRAPSMIDEYPILAVAAAFAEGATVMNGLEELRVKESDRLSAVANGLKLNGVDCDEGETSLVVRGRPDGKGLGNASGAAVATHLDHRIAMSFLVMGLVSENPVTVDDATMIATSFPEFMDLMAGLGAKIELSDTKAA
appKm for PEP (CP4 EPSPS; expressed in E. coli from a PRecA-gene10L vector): 12.7 µM | Km (CP4 EPSPS; expressed in E. coli from the RecA promoter, read-out: apparent Km for PEP): 12.7 µM

B5: Petunia: native Petunia EPSPS, a Class I EPSPS (protein)
chain: KPSEIVLQPIKEISGTVKLPGSKSLSNRILLLAALSEGTTVVDNLLSSDDIHYMLGALKTLGLHVEEDSANQRAVVEGCGGLFPVGKESKEEIQLFLGNAGTAMRPLTAAVTVAGGNSRYVLDGVPRMRERPISDLVDGLKQLGAEVDCFLGTKCPPVRIVSKGGLPGGKVKLSGSISSQYLTALLMAAPLALGDVEIEIIDKLISVPYVEMTLKLMERFGISVEHSSSWDRFFVRGGQKYKSPGKAFVEGDASSASYFLAGAAVTGGTITVEGCGTNSLQGDVKFAEVLEKMGAEVTWTENSVTVKGPPRSSSGRKHLRAIDVNMNKMPDVAMTLAVVALYADGPTAIRDVASWRVKETERMIAICTELRKLGATVEEGPDYCIITPPEKLNVTDIDTYDDHRMAMAFSLAACADVPVTINDPGCTRKTFPNYFDVLQQYSKH
modifications: Petunia x hybrida
Ki/Km (EPSPS enzymes): 0.08 | Km (EPSPS enzymes): 5 µM | signal in Western analysis with rabbit anti-EPSPS antibody [1]: readily detected

B6: PG2982: Class II EPSPS enzyme from Pseudomonas sp. strain PG2982 (SEQ ID NO:7) (protein, listed as Pseudomonas sp.)
chain: MSHSASPKPATARRSEALTGEIRIPGDKSISHRSFMFGGLASGETRITGLLEGEDVINTGRAMQAMGAKIRKEGDVWIINGVGNGCLLQPEAALDFGNAGTGARLTMGLVGTYDMKTSFIGDASLSKRPMGRVLNPLREMGVQVEAADGDRMPLTLIGPKTANPITYRVPMASAQVKSAVLLAGLNTPGVTTVIEPVMTRDHTEKMLQGFGADLTVETDKDGVRHIRITGQGKLVGQTIDVPGDPSSTAFPLVAALLVEGSDVTIRNVLMNPTRTGLILTLQEMGADIEVLNARLAGGEDVADLRVRASKLKGVVVPPERAPSMIDEYPVLAIAASFAEGETVMDGLDELRVKESDRLAAVARGLEANGVDCTEGEMSLTVRGRPDGKGLGGGTVATHLDHRIAMSFLVMGLAAEKPVTVDDSNMIATSFPEFMDMMPGLGAKIELSIL
Ki/Km (EPSPS enzymes): ~8–40 | Km (EPSPS enzymes): 2.1 to 3.1 µM
